This passage reports EC50 (read off the curve) results from patent US20220315655A1.

For this experiment, the target named is recombinant cynomolgus monkey PD-L1 soluble protein (cynomolgus monkey) (UniProt G7PSE7). Put plainly: sandwich ELISA, antibody captured on anti-human Fc, biotinylated rec. cynomolgus PD-L1 titrated (x axis), fluorescence. A general note: In an ELISA, binding on a coated surface is turned into a signal by an enzyme label.
recombinant cynomolgus monkey PD-L1 soluble protein (cynomolgus monkey), sequence (G7PSE7 entry or part of it): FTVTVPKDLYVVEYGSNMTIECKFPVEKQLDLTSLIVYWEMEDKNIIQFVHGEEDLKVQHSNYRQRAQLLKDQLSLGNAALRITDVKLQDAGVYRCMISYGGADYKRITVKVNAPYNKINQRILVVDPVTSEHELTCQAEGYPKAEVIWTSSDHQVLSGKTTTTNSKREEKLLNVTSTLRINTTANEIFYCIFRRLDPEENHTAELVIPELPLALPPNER

Avelumab (antibody), sequence (VH): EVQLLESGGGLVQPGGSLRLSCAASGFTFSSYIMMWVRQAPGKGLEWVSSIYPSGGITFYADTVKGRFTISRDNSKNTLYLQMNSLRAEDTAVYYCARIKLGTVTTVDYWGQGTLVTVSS
Avelumab (antibody), sequence (VL): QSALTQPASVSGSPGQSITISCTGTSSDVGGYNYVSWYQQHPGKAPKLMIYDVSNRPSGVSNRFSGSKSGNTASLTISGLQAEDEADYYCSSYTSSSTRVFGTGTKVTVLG

With Avelumab (antibody), the concentration giving a half-maximal response (EC50 (read off the curve)) (as a rule, the concentration needed to bring the measured effect to its halfway point) was found to be 0.05 nM.
